Side chains are listed from the residue outwards. Ends that are not written are not given here. hairpin oligonucleotide = not defined here
T1: RAD51 (UniProt Q08297 1-339, limits assumed)
T1 sequence (looked up): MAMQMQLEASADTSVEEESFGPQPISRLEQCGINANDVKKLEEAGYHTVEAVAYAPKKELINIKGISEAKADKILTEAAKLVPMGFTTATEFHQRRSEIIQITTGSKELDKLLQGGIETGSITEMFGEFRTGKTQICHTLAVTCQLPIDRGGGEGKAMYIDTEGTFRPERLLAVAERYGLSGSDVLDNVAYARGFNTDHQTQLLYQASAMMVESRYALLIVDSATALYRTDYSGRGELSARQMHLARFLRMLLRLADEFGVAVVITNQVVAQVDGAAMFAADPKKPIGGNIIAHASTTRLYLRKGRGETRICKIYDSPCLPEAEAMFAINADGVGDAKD


Tests used:
RAD51 [1] = target: T1, RAD51; assay: cell-based or functional assay
RAD51 [2] = target: T1, RAD51; assay: cell-based or functional assay; remark: listed apart in the source

increase in targeted homologous recombination relative to a conventional targeting vector (HPRT, ends not protected) (RAD51 [1]) [fold] | increase of targeted recombination compared with the control vector (HP-HPRT) (RAD51 [1]) [fold] | Fold increase of targeted recombination = ratio of control (HP-HPRT)/ratio of expt. vector (Exp 1, F9 cells) (RAD51 [2]) [fold] | Fold increase of targeted recombination = ratio of control (HP-HPRT)/ratio of expt. vector (Exp 2, F9 cells) (RAD51 [2]) [fold] | Fold increase of targeted recombination = ratio of control (HP-HPRT)/ratio of expt. vector (Exp 4, F9 cells) (RAD51 [2]) [fold] | increase in the relative recombination frequency compared to control (HP-HPRT) (RAD51 [1]) [fold] | Fold increase of targeted recombination = ratio of control (HP-HPRT)/ratio of expt. vector (Exp 5, F9 cells) (RAD51 [2]) [fold] | Fold increase of targeted recombination = ratio of control (HP-HPRT)/ratio of expt. vector (Exp 3, F9 cells) (RAD51 [2]) [fold] | Binder
3.5 | 2.6 | 2 | 2.2 | 2.2 | – | – | – | RAD52 bait peptide (mouse RAD52 residues 294-344 with an added C-terminal cysteine), as attached to the targeting vector RAD52-HPRT-NLS (reading uncertain; also: conjugated via oligonucleotide to HPRT targeting DNA) peptide: VAAKHAAVLPAPPKHSTPVTAASELLQEKVVFPDNLEENLEMWDLTPDLEDC([sulfo‑SMCC-hairpin oligonucleotide])
– | – | – | – | 2.2 | 1.5 | 2.3 | – | BRC3 bait peptide (mouse BRCA2 residues 1391-1458 with an added C-terminal cysteine), as attached to the targeting vector BRC3-HPRT-NLS (reading uncertain; also: conjugated via oligonucleotide to HPRT targeting DNA) peptide: ERNIKEFNISFQTASGKNTRVSKESLNKSVNIFNRETDELTVISDSLNSKILHGINKDKMHTSSHKKAC([sulfo‑SMCC-hairpin oligonucleotide])
– | – | – | – | – | – | – | 1.1 | BRC5 negative bait peptide (mouse BRCA2 BRC5 repeat with an added C-terminal cysteine), as attached to the targeting vector BRC5-HPRT-NLS (reading uncertain; also: conjugated via oligonucleotide to HPRT targeting DNA) peptide: SSYPVTEDSALAYYTEDSRKTCVRESSLSKGRKWLREQGDKLGTRNTIKIEC([sulfo‑SMCC-hairpin oligonucleotide])
